Numbering of substitutions follows the chain as printed.
How the values were obtained:
Assay in all cases: SPR; His-tagged receptor variants immobilised on a Ni2+-activated HTG sensor chip (ProteOn); IFNγSC 0.1-9 nM flowed over, 90 s association, 10 min dissociation, 100 μL/min; PBST (PBS pH 7.4, 0.005% Tween 20); doubly referenced (interspots and His-tagged FrpD channel); 1:1 Langmuir with drift model
Details in all cases: both partners purified
[1] = molecular target: T1, IFNγR1 N96W + G225Y double mutant (residues 18-245) (human, UniProt P15260 18-245, N96W | G225Y)
T1 construct: interferon-γ receptor 1 (IFNγR1), human, extracellular domain, residues 18-245 of UniProt P15260; not shown: His tag, C-terminal, kept
T1 sequence (looked up): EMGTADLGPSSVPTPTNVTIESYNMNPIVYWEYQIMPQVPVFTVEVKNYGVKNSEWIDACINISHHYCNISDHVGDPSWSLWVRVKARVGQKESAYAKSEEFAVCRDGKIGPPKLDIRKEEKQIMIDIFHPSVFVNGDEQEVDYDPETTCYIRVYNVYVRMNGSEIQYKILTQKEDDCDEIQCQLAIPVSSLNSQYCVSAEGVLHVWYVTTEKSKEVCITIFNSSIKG

[2] = molecular target: T2, IFNγR1 N96W + V35L variant (residues 18-245) (human, UniProt P15260 18-245, V35L | N96W)
T2 construct: interferon-γ receptor 1 (IFNγR1), human, extracellular domain, residues 18-245 of UniProt P15260; not shown: His tag, C-terminal, kept
T2 sequence (looked up): T1 sequence (looked up) with V18L, Y208G

[3] = molecular target: T3, IFNγR1 G225Y variant (residues 18-245) (human, UniProt P15260 18-245, G225Y)
T3 construct: interferon-γ receptor 1 (IFNγR1), human, extracellular domain, residues 18-245 of UniProt P15260; No primers are printed for this mutation; the methods say one protocol was followed for all proteins of the study; not shown: His tag, C-terminal, kept
T3 sequence (looked up): T1 sequence (looked up) with W79N

B1: Recombinant interferon gamma in so-called single chain form (IFNγSC) (ligand)
chain: MQDPYVKEAENLKKYFNAGHSDVADNGTLFLGILKNWKEESDRKIMQSQIVSFYFKLFKNFKDDQSIQKSVETIKEDMNVKFFNSNKKKRDDFEKLTNYSVTDLNVQRKAIDELIQVMAEFSTEEQQEGPYVKEAENLKKYFNAGHSDVADNGTLFLGILKNWKEESDRKIMQSQIVSFYFKLFKNFKDDQSIQKSVETIKEDMNVKFFNSNKKKRDDFEKLTNYSVTDLNVQRKAIHELIQVMAELSPAAKTGKRKRSQMLFRG
In the case of B1, the “ratio of Kd values against WT” value [1] is reported as 3.1, the “fold of affinity against WT” value [2] is reported as 7 fold and the “ratio of Kd values against WT” value [3] is reported as 0.4.

Source: paper PMC4427845, “Redesigning Protein Cavities as a Strategy for Increasing Affinity in Protein-Protein Interaction: Interferon-γ Receptor 1 as a Model” (BioMed Research International, 2015)
